Patent US20030203372A1, “Analysis method” (priority 2000, published 2003)

Legend:
[1] = test system: human breast and ovary tumors; test: Custom gene array, breast and ovary tumors versus normal adjacent tissue; details: for gene expression level on custom gene array, Breast nor H / gene expression level on custom gene array, Breast nor K / gene expression level on custom gene array, Ovary nor E / gene expression level on custom gene array, Ovary nor F / gene expression level on custom gene array, Ovary nor G: normal adjacent tissue; for gene expression level on custom gene array, Breast nor H / gene expression level on custom gene array, Breast tum H: patient H; for gene expression level on custom gene array, Breast nor K / gene expression level on custom gene array, Breast tum K: patient K; for gene expression level on custom gene array, Breast tum H / gene expression level on custom gene array, Breast tum K / gene expression level on custom gene array, Ovary tum E / gene expression level on custom gene array, Ovary tum F / gene expression level on custom gene array, Ovary tum G: tumor tissue; for gene expression level on custom gene array, Ovary nor E / gene expression level on custom gene array, Ovary tum E: patient E; for gene expression level on custom gene array, Ovary nor F / gene expression level on custom gene array, Ovary tum F: patient F; for gene expression level on custom gene array, Ovary nor G / gene expression level on custom gene array, Ovary tum G: patient G
From the text: A study has been performed to examine the expression of these genes in a selection of breast and ovary tumors, comparing expression with normal adjacent tissue from the same patient. There is expected to be a large degree of variation between different patients, and the study here contains only 5 patients with a range of diagnoses.
Patients are designated as Letters:
E: person. Diagnosis: ovarian adenocarcinoma. Normal ovarian tissue derived from an age-matched separate individual.
: person. Diagnosis: poorly differentiated adenocarcinoma. Normal ovarian tissue derived from the same individual.
G: person. Diagnosis: moderately-differentiated adenocarcinoma. Normal ovarian tissue derived from the same individual.
H: person. Diagnosis: invasive ductal carcinoma. Normnal breast tissue derived from the same individual.
K: person. Diagnosis: invasive ductal carcinoma. Normal breast tissue derived from the same individual.
Data normalisation was done per-chip to correct for differences in labelling and hybridization efficiency. Per-gene normalisation was done such that the expression values of each gene are relative to the median value of that gene throughout the series of samples. By comparing the expression values under normal (nor) and tumor (turn) for a single patient, differences in expression between the normal and malignant tissue of that patient can be inferred.

[2] = test system: primary human cell cultures (11 cell types); test: Custom gene array, 11 human cell types in normoxia or hypoxia for 6 hr and 18 hr; type: cell-based;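 for mRNA expression level, #1 HY 18 hr: cell type #1 is adipocyte from subcutaneous adult adipose tissue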;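 for mRNA expression level, #1 HY 6 hr: cell type #1 is adipocyte from subcutaneous adult adipose tissue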;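 for mRNA expression level, #1 NO: cell type #1 is adipocyte from subcutaneous adult adipose tissue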;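 for mRNA expression level, #2 HY 18 hr: cell type #2 is fetal cardiomyocyte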;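 for mRNA expression level, #2 HY 6 hr: cell type #2 is fetal cardiomyocyte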;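 for mRNA expression level, #2 NO: cell type #2 is fetal cardiomyocyte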;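 for mRNA expression level, #3 HY 6 hr: cell type #3 is human umbilical vein endothelial cells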;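 for mRNA expression level, #3 NO: cell type #3 is human umbilical vein endothelial cells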;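 for mRNA expression level, #4 HY 18 hr: cell type #4 is adult dermal fibroblast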;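 for mRNA expression level, #4 HY 6 hr: cell type #4 is adult dermal fibroblast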;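 for mRNA expression level, #4 NO: cell type #4 is adult dermal fibroblast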;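 for mRNA expression level, #5 HY 6 hr: cell type #5 is adult hepatocyte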;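 for mRNA expression level, #5 NO: cell type #5 is adult hepatocyte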;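 for mRNA expression level, #6 HY 6 hr: cell type #6 is blood-derived macrophage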;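 for mRNA expression level, #6 NO: cell type #6 is blood-derived macrophage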
Experimental: Equivalent cultures of non-immortalized, non-transformed primary human cells of 10 distinct types, were cultured in either normoxia or were exposed to hypoxia for 6 hr and 18 hr, and gene expression changes were determined. […] Moreover, unlike the vast majority of information in the public domain relating to genes responsive to hypoxia, all of these cells were human and were cultured without any modifications following isolation from the human donors.
A non-primary cell type (#9) was used to represent neurons, since primary human neurons are difficult to source. Therefore a total of 11 cell types are compared. It should be noted that RNA from hepatocytes at the […] timepoint of hypoxia was not available for this work.
Each RNA sample was hybridised to duplicate or triplicate arrays, to ensure reproducible data, and was analysed using GeneSpring software. Data from replicate arrays were merged during analysis to generate mean values. Data normalisation was achieved per-array using the aforementioned list of control genes, such that differences in RNA labelling or hybridization due to experimental variation were corrected by referencing each gene to the mean value of the reference genes on the same array. Also, for each gene, expression values were obtained which represent the value in each experimental condition (e.g. macrophages 6 hr hypoxia) as compared to the median of value of that gene throughout the full range of experimental conditions (i.e. from all cell types). […] This is common in microarray data analysis.

B1: p1E19 (nucleic acid, listed as Homo Sapiens)
DNA: TTTTTTTTCCTAGTTTCATTAAAGATGGAGTTCATATTTGTTTCTCATATTAATTTTTAAGACAAAAAAAAGCAGAACTGTTTTCACCCATTAAGTTAAAAACTGGAATTTTACCTTTCCAAACTTATTTCCTACCTTGCCCCTTTTCATGTTAATACCATGAACTATTCAGTAATTCTCTTCAAGCTCCATAATTTCCTACTTTCTACTTTTGCTCATTATTTCCATTCCAAGGGAAAGTTCTGTGTGCGTGTCTATTTCTATGTTCAAATTACACCTGTAAGATCCAACTCACAGGGCCATTGCCCTCTAGGGGTCTCTCCTGGATCCACTTCAACAGGAGGTAATTTTATCTNCACCGGATACCATTTCCTCCTTGGACACTTACCTCTTTTANGGGGACTCCCGAGGGTTGAGGGGGNG
modifications: EST array clone; misc_feature 356, 397, 422: n = A,T,C or G
gene expression level on custom gene array, Breast nor H ([1]; Table 18): 2.38
gene expression level on custom gene array, Breast nor K ([1]; Table 18): 1.19
gene expression level on custom gene array, Breast tum H ([1]; Table 18): 2.49
gene expression level on custom gene array, Breast tum K ([1]; Table 18): 1.78
gene expression level on custom gene array, Ovary nor E ([1]; Table 18): 1.00
gene expression level on custom gene array, Ovary nor F ([1]; Table 18): 1.38
gene expression level on custom gene array, Ovary nor G ([1]; Table 18): 0.20
gene expression level on custom gene array, Ovary tum E ([1]; Table 18): 2.04
gene expression level on custom gene array, Ovary tum F ([1]; Table 18): 1.30
gene expression level on custom gene array, Ovary tum G ([1]; Table 18): 1.19
mRNA expression level, #1 HY 6 hr ([2]; cell type #1, hypoxia 6 hr): 0.65
mRNA expression level, #1 HY 18 hr ([2]; cell type #1, hypoxia 18 hr): 0.62
mRNA expression level, #1 NO ([2]; cell type #1, normoxia): 0.79
mRNA expression level, #2 HY 6 hr ([2]; cell type #2, hypoxia 6 hr): 2.37
mRNA expression level, #2 HY 18 hr ([2]; cell type #2, hypoxia 18 hr): 2.99
mRNA expression level, #2 NO ([2]; cell type #2, normoxia): 2.64
mRNA expression level, #3 HY 6 hr ([2]; cell type #3, hypoxia 6 hr): 1.61
mRNA expression level, #3 HY 18 hr ([2]; cell type #3, hypoxia 18 hr): 1.77
mRNA expression level, #3 NO ([2]; cell type #3, normoxia): 2.10
mRNA expression level, #4 HY 6 hr ([2]; cell type #4, hypoxia 6 hr): 0.40
mRNA expression level, #4 HY 18 hr ([2]; cell type #4, hypoxia 18 hr): 0.64
mRNA expression level, #4 NO ([2]; cell type #4, normoxia): 0.61
mRNA expression level, #5 HY 6 hr ([2]; cell type #5, hypoxia 6 hr): 0.89
mRNA expression level, #5 NO ([2]; cell type #5, normoxia): 0.42
mRNA expression level, #6 HY 6 hr ([2]; cell type #6, hypoxia 6 hr): 0.76
#6 HY 18 hr (mRNA expression level) ([2]; cell type #6, hypoxia 18 hr): 1.08
mRNA expression level, #6 NO ([2]; cell type #6, normoxia): 0.68
#7 HY 6 hr (mRNA expression level) ([2]; cell type #7, hypoxia 6 hr): 0.50
#7 HY 18 hr (mRNA expression level) ([2]; cell type #7, hypoxia 18 hr): 0.32
#7 NO (mRNA expression level) ([2]; cell type #7, normoxia): 0.41
#8 HY 6 hr (mRNA expression level) ([2]; cell type #8, hypoxia 6 hr): 0.90
#8 HY 18 hr (mRNA expression level) ([2]; cell type #8, hypoxia 18 hr): 0.47
#8 NO (mRNA expression level) ([2]; cell type #8, normoxia): 0.38
#9 HY 6 hr (mRNA expression level) ([2]; cell type #9, hypoxia 6 hr): 1.11
#9 HY 18 hr (mRNA expression level) ([2]; cell type #9, hypoxia 18 hr): 1.17
#9 NO (mRNA expression level) ([2]; cell type #9, normoxia): 1.30
#10 HY 6 hr (mRNA expression level) ([2]; cell type #10, hypoxia 6 hr): 1.52
#10 HY 18 hr (mRNA expression level) ([2]; cell type #10, hypoxia 18 hr): 1.39
#10 NO (mRNA expression level) ([2]; cell type #10, normoxia): 1.29
#11 HY 6 hr (mRNA expression level) ([2]; cell type #11, hypoxia 6 hr): 1.69
#11 HY 18 hr (mRNA expression level) ([2]; cell type #11, hypoxia 18 hr): 1.39
#11 NO (mRNA expression level) ([2]; cell type #11, normoxia): 1.14
HIGHEST FOLD CHANGE IN HYPOXIA (hr hypoxia + cell type) ([2]; hypoxia/normoxia induction ratio, 6 hr hepatocyte): 2.13 (6 hr hepatocyte) fold

B2: p2A23 (nucleic acid, listed as Homo Sapiens)
DNA: AGAAGAAGCTGGCCAAGGATATGGGAGCAACCACCATGGACCAGAAGTCTCTCTGGGCAGGTGTAGTGGTCTTGCTGCTTCTCCAGGGAGGATCTGCCTACAAACTGGTTTGCTACTTTACCAACTGGTCCCAGGACCGGCAGGAACCAGGAAAATTCACCCCTGAGAATATTGACCCCTTCCTATGCTCTCATCTCATCTATTCATTCGCCAGCATCGAAAACAACAAGGTTATCATCAAGGACAAGAGTGAAGTGATGCTCTACCAGACCATCAACAGTCTCAAAACCAAGAATCCCAAACTGAAAATTCTCTTGTCCATTGGAGGGTACCTGTTTGGTTCCAAAGGGTTCCACCCTATGGTGGATTCTTCTACATCACGCTTGGAATTCATTAACTCCATAATCCTGTTTCTGAGGAACCATAACTTTGATGGACTGGATGTAAGCTGGATCTACCCAGATCAGAAAGAAAACACTCATTTCACTGTGCTGATTCATGAGTTAGCAGAAGCCTTTCAGAAGGACTTCACAAAATCCACCAAGGAAAGGCTTCTCTTGACTGCGGGCGTATCTGCAGGGAGGCAAATGATTGATAACAGCTATCAAGTTGAGAAACTGGCAAAAGATCTGGATTTCATCAACCTCCTGTCCTTTGACTTCCATGGGTCTTGGGAAAAGCCCCTTATCACTGGCCACAACAGCCCTCTGAGCAAGGGGTGGCAGGACAGAGGGCCAAGCTCCTACTACAATGTGGAATATGCTGTGGGGTACTGGATACATAAGGGAATGCCATCAGAGAAGGTGGTCATGGGCATCCCCACATATGGGCACTCCTTCACACTGGCCTCTGCAGAAACCACCGTGGGGGCCCCTGCCTCTGGCCCTGGAGCTGCTGGACCCATCACAGAGTCTTCAGGCTTCCTGGCCTATTATGAGATCTGCCAGTTCCTGAAAGGAGCCAAGATCACGCGCCTCCAGGATCAGCAGGTTCCCTACGCAGTCAAGGGGAACCAGTGGGTGGGCTATGATGATGTGAAGAGTATGGAGACCAAGGTTCAGTTCTTAAAGAATTTAAACCTGGGAGGAGCCATGATCTGGTCTATTGACATGGATGACTTCACTGGCAAATCCTGCAACCAGGGCCCTTACCCTCTTGTCCAAGCAGTCAAGAGAAGCCTTGGCTCCTTGTGAAGGATTAACTTACAGAGAAGCAGGCAAGATGACCTTGCTGCCTGGGGCCTGCTCTCTCCCAGGAATTCTCATGTGGGATTCCCCTTGCCAGGCTGGCCTTTGGATCTCTCTTCCAAGCCTTTCCTGACTTCCTCTTAGATCATAGATTGGACCTGGTTTTGTTTTCCTGCAGCTGTTGACTTGTTGCCCTGAAGTACAATAAAAAAAATTCATTTTGCTCCAGTA
gene expression level on custom gene array, Breast nor H ([1]; Table 19): 1.36
gene expression level on custom gene array, Breast nor K ([1]; Table 19): 0.91
gene expression level on custom gene array, Breast tum H ([1]; Table 19): 2.22
gene expression level on custom gene array, Breast tum K ([1]; Table 19): 2.01
gene expression level on custom gene array, Ovary nor E ([1]; Table 19): 0.66
gene expression level on custom gene array, Ovary nor F ([1]; Table 19): 0.48
gene expression level on custom gene array, Ovary nor G ([1]; Table 19): 4.18
gene expression level on custom gene array, Ovary tum E ([1]; Table 19): 0.78
gene expression level on custom gene array, Ovary tum F ([1]; Table 19): 0.61
gene expression level on custom gene array, Ovary tum G ([1]; Table 19): 0.74
mRNA expression level ([2]; cell type #1, HY (hypoxia) 6 hr): 1.24
mRNA expression level ([2]; cell type #1, HY (hypoxia) 18 hr): 1.15
mRNA expression level ([2]; cell type #1, NO (normoxia)): 1.79
mRNA expression level ([2]; cell type #2, HY (hypoxia) 6 hr): 2.26
mRNA expression level ([2]; cell type #2, HY (hypoxia) 18 hr): 1.79
mRNA expression level ([2]; cell type #2, NO (normoxia)): 1.81
mRNA expression level ([2]; cell type #3, HY (hypoxia) 6 hr): 1.28
mRNA expression level ([2]; cell type #3, HY (hypoxia) 18 hr): 0.95
mRNA expression level ([2]; cell type #3, NO (normoxia)): 1.11
mRNA expression level ([2]; cell type #4, HY (hypoxia) 6 hr): 0.87
mRNA expression level ([2]; cell type #4, HY (hypoxia) 18 hr): 0.77
mRNA expression level ([2]; cell type #4, NO (normoxia)): 1.26
mRNA expression level ([2]; cell type #5, HY (hypoxia) 6 hr): 1.43
mRNA expression level ([2]; cell type #5, NO (normoxia)): 0.77
mRNA expression level ([2]; cell type #6, HY (hypoxia) 6 hr): 0.91
mRNA expression level ([2]; cell type #6, NO (normoxia)): 0.76
